In paper PMC5595328:

Experiments:
[1] = biological target: VarG metallo-β-lactamase (Vibrio cholerae (strain CVD101 chromosomal DNA)); assay: SEC; Superdex200 PrepGrade HiLoad 16/60, 20 mM Tris-HCl pH 8.25, 50 mM NaCl, 10% glycerol, 1 ml/minute; Mr from a calibration curve of standards
[2] = biological target: VarG metallo-β-lactamase (Vibrio cholerae (strain CVD101 chromosomal DNA)); assay: intact protein ESI Q-TOF mass spectrometry; putative dimer peak from SEC infused directly, positive ion mode, MaxEnt1 deconvolution; 10 μg/mL in the methods, 50 μg/mL in the legend
[3] = biological target: VarG metallo-β-lactamase (Vibrio cholerae (strain CVD101 chromosomal DNA)); assay: AUC; sedimentation velocity, 42,000 rpm, 20°C, 280 nm, SEDFIT c(s, fr) and c(s, M)
[4] = biological target: VarG metallo-β-lactamase (Vibrio cholerae (strain CVD101 chromosomal DNA)); assay: AUC
[5] = biological target: VarF ATPase subunit of the VarDEF ABC transporter (Vibrio cholerae (strain CVD101 chromosomal DNA)); assay: SEC; Superdex200 PrepGrade HiLoad 16/60, 20 mM Tris-HCl pH 8.25, 50 mM NaCl, 10% glycerol, 1 ml/minute; Mr from a calibration curve of standards
[6] = system: VarR (Vibrio cholerae O1 biovar El Tor N16961); assay: competition; conditions: 50 mM Tris-HCl pH 7.5, 5 mM EDTA, 1 mM DTT, 100 ug/ml BSA, 5% glycerol, on ice 10 min; 4% polyacrylamide gel

In the case of VarG metallo-β-lactamase (enzyme), the stoichiometry N [1] is reported as 2, the stoichiometry N [2] is reported as 2 and the stoichiometry N [3] is reported as 2. It also gave a stoichiometry N [4] of 2.

“VarF ATPase subunit of the VarDEF ABC transporter (enzyme)” gave a stoichiometry N [5] of 2.

Substance 30 bp varR-varG IR has a binding signal [6] of 1 ng.
